Measurements published in PMC13001094, “Cargo Recognition of Nesprin‑2 by the Dynein Adapter Bicaudal D2 for a Nuclear Positioning Pathway That Is Important for Brain Development” (Biochemistry, 2026).

B1: His6-tagged human BicD2-CTD (aa 715–804) [human] / GST-tagged mouse Nesprin-2 (aa 6123–6421) [mouse] (parent complex)
chain 1: YENEKAMVTETMMKLRNELKALKEDAATFSSLRAMFATRCDEYITQLDEMQRQLAAAEDEKKTLNSLLRMAIQQKLALTQRLELLELDHE
chain 2: RLWQKFLDDYSRFEDWLKSAERTAACPNSSEVLYTNAKEELKRFEAFQRQIHERLTQLELINKQYRRLARENRTDTASKLKQMVHEGNQRWDNLQKRVTAILRRLRYFTNQREEFEGTRESILVWLTEMDLQLTNVEHFSESDAEDKMRQLNGFQQEITLNTNKIDQLIVFGEQLIQKSEPLDAVLIEDELEELHRYCQEVFGRVSRFHRRLTSHTPGLDDEKEASENETDIEDPREIQADSWRKRRESEEPTSPQSLCHLVPPALGHERSGCETPVSVDSIPLEWDHTGDVGGSSSHE

Variants of: B1
Assay: GST-pulldown, SDS-PAGE band intensity; n = 3; parent: 1; read off a plot

Row | ratio to parent | Variant
1 | ~0.04 | chain 2 V124A, chain 2 L131A, chain 2 F139A
2 | ~0.81 | chain 2 E128A
3 | ~0.29 | chain 2 H138A
4 | ~0.32 | chain 2 Y197A

Variants of: B1
Assay: as above
Remark: another data set of the same source

Row | ratio to parent | Variant
5 | ~0.47 | chain 1 E83C
6 | ~0.47 | chain 1 R69A
